Experimental data as given in PMC4520715.

Experiments:
Assay in all cases: co-IP
[1] = biological target: myc-UBQLN1 (human) (human) (UniProt Q9UMX0)
[2] = biological target: Rv1926c-V5 (Mycobacterium tuberculosis) (UniProt P9WIP1)
[3] = biological target: Rv1566-V5 (Mycobacterium tuberculosis)

UniProt P9WIP1, sequence (P9WIP1 30-159): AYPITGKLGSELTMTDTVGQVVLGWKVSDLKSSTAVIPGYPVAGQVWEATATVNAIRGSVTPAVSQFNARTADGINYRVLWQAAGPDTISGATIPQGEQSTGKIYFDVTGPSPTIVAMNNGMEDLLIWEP

| Substance | percent of the amount directly precipitated [1] [%] | percent of the amount precipitated directly with the myc antibody [2] [%] | percent of the amount directly precipitated [3] [%] |
| --- | --- | --- | --- |
| Rv1566-V5 (natural protein) | 7 | – | – |
| myc-UBQLN1 (human) (from UniProt Q9UMX0 1-589) (natural protein) | – | 27 | 7 |
